The target of assay [1] is human intermediate affinity IL-2Rβγ on TF-1β cells (human) (UniProt P14784). Description: cell-based or functional assay.
The target of assay [2] is human IL-2Rαβγ on Kit-225 cells (human) (UniProt P01589). Description: cell-based or functional assay.
In assay [3] the target is murine high affinity IL-2Rαβγ on CTLL-2 cells (murine) (UniProt P01590). Description: cell-based or functional assay.
For assay [4], the target named is FcγR receptors on U937 cells. Kind of assay: cell-based ELISA on U937 cells, detection with FITC-conjugated anti-human IgG Fc F(ab')2.

Sequence of UniProt P14784 (P14784 27-551, chain 1 of 2): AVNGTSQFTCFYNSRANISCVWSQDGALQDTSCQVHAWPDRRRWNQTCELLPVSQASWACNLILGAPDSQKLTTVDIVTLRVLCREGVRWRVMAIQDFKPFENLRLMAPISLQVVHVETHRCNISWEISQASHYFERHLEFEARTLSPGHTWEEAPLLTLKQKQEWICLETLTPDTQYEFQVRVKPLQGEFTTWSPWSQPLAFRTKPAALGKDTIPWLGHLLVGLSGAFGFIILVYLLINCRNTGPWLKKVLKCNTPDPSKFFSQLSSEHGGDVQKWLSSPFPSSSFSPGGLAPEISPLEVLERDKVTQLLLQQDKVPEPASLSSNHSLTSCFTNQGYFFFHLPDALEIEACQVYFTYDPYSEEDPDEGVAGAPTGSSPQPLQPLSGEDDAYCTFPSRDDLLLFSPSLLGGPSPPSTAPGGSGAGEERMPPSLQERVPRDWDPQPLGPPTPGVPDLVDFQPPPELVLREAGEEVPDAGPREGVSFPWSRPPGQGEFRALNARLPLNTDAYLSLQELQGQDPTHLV
Sequence of UniProt P14784 (P31785 23-369, chain 2 of 2, further chain): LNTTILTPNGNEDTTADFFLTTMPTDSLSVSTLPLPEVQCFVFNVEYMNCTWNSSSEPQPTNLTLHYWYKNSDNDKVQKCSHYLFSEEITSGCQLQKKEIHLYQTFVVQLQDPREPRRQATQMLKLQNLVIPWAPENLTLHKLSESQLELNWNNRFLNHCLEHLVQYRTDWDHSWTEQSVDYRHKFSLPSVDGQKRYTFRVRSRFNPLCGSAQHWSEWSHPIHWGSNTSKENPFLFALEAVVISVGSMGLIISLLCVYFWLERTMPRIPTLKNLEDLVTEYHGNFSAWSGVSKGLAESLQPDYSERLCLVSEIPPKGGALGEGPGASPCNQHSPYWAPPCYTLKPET
Sequence of UniProt P01589 (P01589 22-272, chain 1 of 3): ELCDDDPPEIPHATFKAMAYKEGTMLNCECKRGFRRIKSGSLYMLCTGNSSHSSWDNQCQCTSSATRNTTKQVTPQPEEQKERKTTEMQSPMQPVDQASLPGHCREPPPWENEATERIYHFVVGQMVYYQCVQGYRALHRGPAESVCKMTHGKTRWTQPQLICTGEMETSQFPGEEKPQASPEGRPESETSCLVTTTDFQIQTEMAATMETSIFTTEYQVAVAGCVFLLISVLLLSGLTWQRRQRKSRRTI
Sequence of UniProt P01589 (P14784 27-551, chain 2 of 3, further chain): as the sequence (P14784 27-551, chain 1 of 2) above
Sequence of UniProt P01589 (P31785 23-369, chain 3 of 3, further chain): as the sequence (P31785 23-369, chain 2 of 2, further chain) above
Sequence of UniProt P01590 (P01590 22-268, chain 1 of 3): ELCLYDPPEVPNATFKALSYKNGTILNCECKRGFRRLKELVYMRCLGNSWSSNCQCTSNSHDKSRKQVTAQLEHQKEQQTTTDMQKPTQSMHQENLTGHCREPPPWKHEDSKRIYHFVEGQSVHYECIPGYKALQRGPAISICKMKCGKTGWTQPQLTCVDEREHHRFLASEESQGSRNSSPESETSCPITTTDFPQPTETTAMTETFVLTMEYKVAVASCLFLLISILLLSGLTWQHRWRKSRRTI
Sequence of UniProt P01590 (P16297 27-539, chain 2 of 3, further chain): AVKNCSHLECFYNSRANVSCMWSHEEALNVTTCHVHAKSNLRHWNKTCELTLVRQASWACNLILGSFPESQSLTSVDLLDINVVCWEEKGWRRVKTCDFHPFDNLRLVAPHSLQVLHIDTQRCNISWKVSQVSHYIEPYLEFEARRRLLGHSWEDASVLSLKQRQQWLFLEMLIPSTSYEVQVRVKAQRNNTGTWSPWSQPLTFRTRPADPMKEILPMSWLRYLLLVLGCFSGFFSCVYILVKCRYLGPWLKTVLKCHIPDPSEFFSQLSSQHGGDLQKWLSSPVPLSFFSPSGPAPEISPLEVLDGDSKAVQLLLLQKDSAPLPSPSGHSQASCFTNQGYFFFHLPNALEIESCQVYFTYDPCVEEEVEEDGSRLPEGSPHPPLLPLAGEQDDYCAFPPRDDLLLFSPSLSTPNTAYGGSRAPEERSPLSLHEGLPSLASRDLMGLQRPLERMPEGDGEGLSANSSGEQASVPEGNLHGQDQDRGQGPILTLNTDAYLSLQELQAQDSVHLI
Sequence of UniProt P01590 (P34902 23-369, chain 3 of 3, further chain): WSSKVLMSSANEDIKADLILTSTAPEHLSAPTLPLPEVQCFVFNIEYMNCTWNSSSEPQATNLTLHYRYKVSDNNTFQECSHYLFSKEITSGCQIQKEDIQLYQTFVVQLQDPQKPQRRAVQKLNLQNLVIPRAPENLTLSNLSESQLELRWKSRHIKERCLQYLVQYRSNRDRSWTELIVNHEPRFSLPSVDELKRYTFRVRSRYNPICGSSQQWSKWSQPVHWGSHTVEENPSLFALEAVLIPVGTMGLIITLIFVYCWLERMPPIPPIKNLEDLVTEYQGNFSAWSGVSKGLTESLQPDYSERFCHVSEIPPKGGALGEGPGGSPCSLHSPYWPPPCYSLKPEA

As to 14.18-IL2, the ED50 Ratio = ED50 [TF1-β]/ED50 [CTLL-2], cell proliferation in assay [1] was determined as 0.07.

As for N-Glycanase treated 14.18-IL2, in assay [1], the ED50 Ratio = ED50 [TF1-β]/ED50 [CTLL-2], cell proliferation was determined as 0.21 and the fold increase of the ED50 ratio (TF-1β/CTLL-2) compared to untreated 14.18-IL2 was found to be 3 fold.

Turning to N-Glycanase treated huKS-IL2, in assay [1], the ED50 Ratio = ED50 [TF1-β]/ED50 [CTLL-2], cell proliferation came out at 0.45 and the fold increase of the ED50 Ratio (TF-1β/CTLL-2) relative to huKS-IL2 worked out at 2 fold.

Take huKS-IL2: in assay [1], the ED50 Ratio = ED50 [TF1-β]/ED50 [CTLL-2], cell proliferation came out at 0.11; the ED50 Ratio TF-1β/Kit-225, cell proliferation is 4; the fold change of the ED50 ratio (TF-1β/CTLL-2) against free IL-2 was 5 fold.

huKS-ala-IL2: the ED50, proliferation of Kit-225 cells in assay [2] was found to be 0.08. For the same substance, in assay [1], the ED50 Ratio = ED50 [TF1-β]/ED50 [CTLL-2], cell proliferation was 0.17 and the ED50 Ratio TF-1β/Kit-225, cell proliferation turned out to be 10.4. In assay [3], this substance yielded an ED50, proliferation of CTLL-2 cells of 5. The EC50 (usually the concentration needed to bring the measured effect to its halfway point) in assay [4] was found to be 5 µg/mL.

For the substance huKS-ala-IL2(N88R), the ED50, proliferation of Kit 225 cells in assay [2] worked out at 0.13. In assay [1], the ED50 Ratio = ED50 [TF1-β]/ED50 [CTLL-2], cell proliferation turned out to be 2300; the ED50 Ratio TF-1β/Kit-225, cell proliferation was determined as 52000; the shift in selectivity (ED50 ratio TF-1β/CTLL-2) relative to KS-ala-IL2 stood at 20000 fold. The same substance yielded an ED50, proliferation of CTLL-2 cells in assay [3] of 3.

The values are drawn from patent US20030166163A1.
